The source of these data is publication doi:10.1101/318345, “Three enzymes and one substrate; regulation of flux through the glyoxylate shunt in the opportunistic pathogen, Pseudomonas aeruginosa” (bioRxiv, 2018).

This series concerns the molecule itself. Put plainly: SEC-MALS; TSK-Gel G3000 SWXL column, 150 mM NaCl, 20 mM Tris-HCl (pH 8.0), 0.5 mL/min, Mini-DAWN light scattering detector. For orientation: SEC sorts molecules by how far they enter the pores of the column.

B1: Pseudomonas aeruginosa isocitrate lyase (ICL, PA2634) (enzyme, Pseudomonas aeruginosa strain PAO1, UniProt Q9I0K4 1-531, looked up)
chain: MSAYQNEIKAVAALKEKNGSSWSAINPEYAARMRIQNRFKTGLDIAKYTAAIMRKDMAEYDADSSVYTQSLGCWHGFIGQQKLISIKKHLKTTNKRYLYLSGWMVAALRSDFGPLPDQSMHEKTAVSGLIEELYTFLRQADARELDLLFTGLDAARAAGDKAKEAELLAQIDNFETHVVPIIADIDAGFGNAEATYLLAKKMIEAGACCIQIENQVSDEKQCGHQDGKVTVPHIDFLAKINAVRYAFLELGVDDGVIVARTDSLGAGLTKQIAVTNEPGDLGDLYNSFLDCEEISESELGNGDVVIKREGKLLRPKRLASNLFQFRKGTGEDRCVLDCITSLQNGADLLWIETEKPHVGQIKAMVDRIREVIPNAKLVYNNSPSFNWTLNFRQQVFDAFVAEGKDVSAYDRNKLMSVEYDDTELAKVADEKIRTFQRDGSAHAGIFHHLITLPTYHTAALSTDNLAKGYFADEGMLAYVKGVQRQELRQGIACVKHQNMAGSDIGDNHKEYFAGEAALKASGKDNTMNQFH
notes: isocitrate lyase (ICL), ORF PA2634 of Pseudomonas aeruginosa strain PAO1, 531 amino acids; The ORF was cloned into a pMAL-c2X derivative with a hexa-histidine tag on the N-terminus of MBP; The His6-MBP tag was cut off with Factor Xa; Crystallised with Ca2+ and glyoxylate; also called P. aeruginosa ICL; source: E. coli DH5α, purified (amylose resin, Factor Xa cleavage, Ni-NTA flow through); not …
As a reminder, the stoichiometry N is the number of molecules, sites or subunits per partner or assembly. Consider B1, for which the “stoichiometry N” value came to 4.

B2: Pseudomonas aeruginosa isocitrate dehydrogenase ICD (PA2623) (enzyme, Pseudomonas aeruginosa strain PAO1, UniProt Q02NB5 1-418, looked up)
chain: MGYQKIQVPATGDKITVNADMSLSVPKNPIIPFIEGDGIGVDISPVMIKVVDAAVEKAYKGERKIAWMEVYAGEKATQVYDQDTWLPQETLDAVRDYVVSIKGPLTTPVGGGIRSLNVALRQQLDLYVCQRPVRWFEGVPSPVKKPGDVDMVIFRENSEDIYAGVEWKAGSPEAEKVIKFLTEEMGVKKIRFTENCGIGIKPVSQEGTKRLVRKALQYAVDNDRSSVTLVHKGNIMKFTEGAFKDWGYEVARDEFGAELLDGGPWMQFKNPKTGKNVVVKDVIADAMLQQILLRPAEYDVIATLNLNGDYLSDALAAEVGGIGIAPGANLSDSVAMFEATHGTAPKYAGQDKVNPGSLILSAEMMLRHMGWTEAADLIIKGTNGAIAAKTVTYDFERLMDGATLLSCSEFGDAMIAKM
notes: isocitrate dehydrogenase ICD, ORF PA2623 of Pseudomonas aeruginosa strain PAO1, calculated molecular mass 45 kDa; The ORF was cloned into a pMAL-c2X derivative with a hexa-histidine tag on the N-terminus of MBP; The His6-MBP tag was cut off with Factor Xa; also called P. aeruginosa ICD; source: E. coli DH5α, purified (amylose resin, Factor Xa cleavage, Ni-NTA flow through); not shown: His6, …
Turning to B2, the “stoichiometry N” value came out at 2.
